Data reported in patent publication US20250076311A1 (Chugai, published 2025).
Positions count from the first letter of the chain named.

How the values were obtained:
[1] = target: T1, cynomolgus monkey FcγRIIIaS extracellular domain with C-terminal His-tag (cynomolgus monkey, UniProt Q8SPW2 21-206 at identity 1.00)); test: SPR, antibody captured, FcγR analyte
T1 construct: also called cyno FcgRIIIaS; cynoFcγRIIIaS
T1 chain: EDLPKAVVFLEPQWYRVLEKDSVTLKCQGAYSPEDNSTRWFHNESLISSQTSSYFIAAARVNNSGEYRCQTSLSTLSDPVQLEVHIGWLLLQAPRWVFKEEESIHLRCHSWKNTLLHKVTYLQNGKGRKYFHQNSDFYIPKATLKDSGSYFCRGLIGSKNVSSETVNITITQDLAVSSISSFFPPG
Procedure: (§1) The kinetic analysis of interactions between these antibodies and FcγR was carried out using BIACORE® T200 or BIACORE® 4000 (GE Healthcare). HBS-EP+ (GE Healthcare) was used as the running buffer, and the measurement temperature was set to 25° C. […] After the measurement, the antibody captured on the chip was washed off by allowing reaction with 10 mM glycine-HCl, pH1.5 and 25 mM NaOH so that the chip was regenerated and used repeatedly. The sensorgrams obtained as measurement results were analyzed by the 1:1 Langmuir binding model using the BIACORE® Evaluation Software to calculate the binding rate constant ka (L/mol/s) and dissociation rate constant kd (1/s), and the dissociation constant KD (mol/L) was calculated from these values. […] Regarding such interactions, KD values were calculated using the following 1:1 binding model described in BIACORE® T100 Software Handbook BR1006-48 Edition AE.

[2] = target: T1, cynomolgus monkey FcγRIIIaS …; test: SPR, KD(SG1)/KD(variant)
Procedure: as §1

[3] = target: T2, cynomolgus monkey FcγRIIIaS extracellular domain with C-terminal His-tag (cynomolgus monkey, UniProt A3RFZ7 21-206 (rhesus entry)); test: SPR (BIACORE), antibody captured, FcgR analyte
T2 construct: also called cyno FcgRIIIaS; cynoFcγRIIIaS; not shown: His-tag added to the C-terminus

[4] = target: T3, cynomolgus monkey FcγRIIa1 extracellular domain with C-terminal His-tag (cynomolgus monkey); test: SPR (BIACORE); KD of SG1 / KD of variant
T3 construct: also called cyno FcgRIIa1; cynoFcγRIIa1; not shown: His-tag added to the C-terminus
T3 chain: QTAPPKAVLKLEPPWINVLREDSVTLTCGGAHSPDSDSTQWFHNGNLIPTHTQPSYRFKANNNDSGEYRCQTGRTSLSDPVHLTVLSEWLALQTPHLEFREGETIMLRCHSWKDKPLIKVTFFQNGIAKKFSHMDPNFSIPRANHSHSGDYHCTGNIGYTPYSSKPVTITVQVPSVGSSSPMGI

[5] = target: T2, cynomolgus monkey FcγRIIIaS …; test: SPR (BIACORE); KD of SG1 / KD of variant
[6] = target: T4, cynomolgus monkey FcγRIIa2 extracellular domain, His-tagged (cynomolgus monkey); test: SPR Biacore, antibody captured, FcgR analyte
T4 construct: also called cyno FcγRIIa2; cynoFcgRIIa2; not shown: C-terminal His-tag
T4 chain: T3 chain with P95T, T121A, I127K, A128S, K130N, D135N, R142Q

[7] = target: T5, cynomolgus monkey FcγRIIa1 extracellular domain, His-tagged (cynomolgus monkey); test: SPR Biacore, KD(SG1)/KD(variant)
T5 construct: also called cyno FcγRIIa1; cynoFcgRIIa1; not shown: C-terminal His-tag
T5 chain: T3 chain
Procedure: as §1

[8] = target: T6, cynomolgus monkey FcγRIIb extracellular domain, His-tagged (cynomolgus monkey); test: SPR Biacore, KD(SG1)/KD(variant)
T6 construct: also called cyno FcγRIIb; cynoFcγRIIb; not shown: C-terminal His-tag
T6 chain: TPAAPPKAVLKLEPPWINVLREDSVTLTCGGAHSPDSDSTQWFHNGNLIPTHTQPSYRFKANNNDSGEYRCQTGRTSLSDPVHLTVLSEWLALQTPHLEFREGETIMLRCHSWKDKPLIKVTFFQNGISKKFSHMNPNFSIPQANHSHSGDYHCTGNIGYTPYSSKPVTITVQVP
Procedure: as §1

[9] = target: T7, human FcγRIIaR extracellular domain, His-tagged (human, UniProt P12318 34-217); test: SPR Biacore, KD(SG1)/KD(variant)
T7 construct: also called human FcγRIIa (type R); FcgRIIaR; not shown: C-terminal His-tag
T7 chain: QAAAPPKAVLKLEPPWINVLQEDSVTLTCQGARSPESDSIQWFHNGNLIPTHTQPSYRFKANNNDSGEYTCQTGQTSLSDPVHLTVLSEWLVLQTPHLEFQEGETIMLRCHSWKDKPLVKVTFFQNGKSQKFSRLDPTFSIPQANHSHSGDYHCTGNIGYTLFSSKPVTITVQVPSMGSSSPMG
Procedure: as §1

[10] = target: T5, cynomolgus monkey FcγRIIa1 …; test: SPR Biacore, antibody captured, FcgR analyte
[11] = target: T8, cynomolgus monkey FcγRIIa3 extracellular domain, His-tagged (cynomolgus monkey); test: SPR Biacore, KD(SG1)/KD(variant)
T8 construct: also called cyno FcγRIIa3; cynoFcgRIIa3; not shown: C-terminal His-tag
T8 chain: T3 chain with P95T, T121A, A128S, H133P, D135N
Procedure: as §1

[12] = target: T3, cynomolgus monkey FcγRIIa1 …; test: SPR (BIACORE), antibody captured, FcgR analyte
[13] = target: T9, cynomolgus monkey FcγRIIa3 extracellular domain with C-terminal His-tag (cynomolgus monkey); test: SPR (BIACORE), antibody captured, FcgR analyte
T9 construct: also called cyno FcgRIIa3; cynoFcγRIIa3; not shown: His-tag added to the C-terminus
T9 chain: T3 chain with P95T, T121A, A128S, H133P, D135N

[14] = target: T4, cynomolgus monkey FcγRIIa2 …; test: SPR Biacore, KD(SG1)/KD(variant)
Procedure: as §1

[15] = target: T10, human FcγRIIb extracellular domain, His-tagged (human, UniProt P31994 43-217); test: SPR Biacore, antibody captured, FcgR analyte
T10 construct: also called FcgRIIb (human); not shown: C-terminal His-tag
T10 sequence: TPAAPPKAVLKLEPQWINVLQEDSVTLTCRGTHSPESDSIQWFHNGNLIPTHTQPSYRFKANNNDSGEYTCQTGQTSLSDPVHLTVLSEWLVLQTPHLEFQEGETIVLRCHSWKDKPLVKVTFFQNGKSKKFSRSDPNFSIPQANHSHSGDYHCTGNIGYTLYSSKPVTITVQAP

[16] = target: T10, human FcγRIIb extracellular domain, …; test: SPR Biacore, KD(SG1)/KD(variant)
Procedure: as §1

B1: MS1032LO06-MY335 (antibody, human IgG1, kappa)
heavy: QVTLKESGPVLVKPTETLTLTCTVSGIDLSHDDISWVRQAPGKGLEWVGIISYAGSTYYASWAKGRLTISKDTSKNQVVLTMTNMDPVDTATYYCARGVPAYSHGGDLWGQGTLVTVSSASTKGPSVFPLAPSSKSTSGGTAALGCLVKDYFPEPVTVSWNSGALTSGVHTFPAVLQSSGLYSLSSVVTVPSSSLGTQTYICNVNHKPSNTKVDKKVEPKSCDKTHTCPPCPAPELLTGPSVFLFPPKPKDTLMISRTPEVTCVVVDVSDEDPEVKFNWYVDGVEVHNAKTKPREEQYNSTYRVVSVLTVLHRDWLNGKEYKCKVSNKALPKPIEKTISKAKGQPREPQVYTLPPSREEMTKNQVSLTCLVKGFYPSDIAVEWESNGQPENNYKTTPPVLDSDGSFFLYSKLTVKKSRWQQGNVFSCSVMHEALHNHYTQKSLSLSP
light: DIVMTQSPATLSLSPGERATLSCTSSQSVYHANWLSWFQQKPGQPPKLLIYWASTLAYGVPSRFSGSGSGTDFTLTISSLQPEDAATYYCAGGYGGGRYAFGQGTKVEIKRTVAAPSVFIFPPSDEQLKSGTASVVCLLNNFYPREAKVQWKVDNALQSGNSQESVTEQDSKDSTYSLSSTLTLSKADYEKHKVYACEVTHQGLSSPVTKSFNRGEC
notes: also called M103205H795-MY335; copies: 2 + 2
Kd [1]: 1.5 µM | KD fold (SG1 = 1) [2]: 0.24 fold

B2: M103205H795-MY052/M103202L889-SK1 (antibody, human IgG1, kappa, name in EU numbering)
heavy: B1 heavy with T238N, D270E, R313Q, K332A, P398M, K415D
light: B1 light
notes: Fc variant of MS1032LO06-SG1; positions in EU numbering
Kd [3]: 1.5 µM | KD fold (SG1 = 1) [4]: 2.5 fold | KD fold (SG1 = 1) [5]: 0.24 fold

B3: M103205H795-MY070/M103202L889-SK1 (antibody, human IgG1, kappa, name in EU numbering)
heavy: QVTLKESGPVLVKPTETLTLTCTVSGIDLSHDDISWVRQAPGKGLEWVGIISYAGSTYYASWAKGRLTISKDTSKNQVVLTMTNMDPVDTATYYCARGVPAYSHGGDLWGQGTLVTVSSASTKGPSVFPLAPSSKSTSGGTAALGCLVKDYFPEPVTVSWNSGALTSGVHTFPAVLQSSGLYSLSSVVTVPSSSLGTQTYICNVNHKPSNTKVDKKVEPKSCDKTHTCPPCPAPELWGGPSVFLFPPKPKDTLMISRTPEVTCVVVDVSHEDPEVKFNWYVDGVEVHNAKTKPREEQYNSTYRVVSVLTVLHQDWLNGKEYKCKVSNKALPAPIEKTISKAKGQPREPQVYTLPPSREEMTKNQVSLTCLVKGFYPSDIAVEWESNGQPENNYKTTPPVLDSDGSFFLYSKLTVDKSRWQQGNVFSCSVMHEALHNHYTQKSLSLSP
light: B1 light
notes: Substitution introduced into M103205H795-SG1; EU numbering
Kd [6]: 2.8 µM | KD fold (SG1 = 1) [7]: 1 fold

B4: M103205H795-MY061/M103202L889-SK1 (antibody, human IgG1, kappa, name in EU numbering)
heavy: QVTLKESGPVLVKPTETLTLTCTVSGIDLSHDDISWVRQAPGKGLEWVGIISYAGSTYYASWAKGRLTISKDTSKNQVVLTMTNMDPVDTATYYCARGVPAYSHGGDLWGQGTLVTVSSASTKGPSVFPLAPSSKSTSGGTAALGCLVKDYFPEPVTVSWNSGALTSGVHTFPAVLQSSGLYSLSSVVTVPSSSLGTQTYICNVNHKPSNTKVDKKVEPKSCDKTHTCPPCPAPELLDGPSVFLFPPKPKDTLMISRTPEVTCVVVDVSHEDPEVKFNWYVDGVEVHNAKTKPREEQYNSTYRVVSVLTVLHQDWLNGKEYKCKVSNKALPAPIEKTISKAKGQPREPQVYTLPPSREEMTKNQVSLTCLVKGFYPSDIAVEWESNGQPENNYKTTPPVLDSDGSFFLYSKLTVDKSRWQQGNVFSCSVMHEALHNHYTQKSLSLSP
light: B1 light
notes: as for B3
Kd [6]: 6.8 µM | KD fold (SG1 = 1) [8]: 0.4 fold | KD fold (SG1 = 1) [9]: 0.8 fold

B5: M103205H795-MY040/M103202L889-SK1 (antibody, human IgG1, kappa, name in EU numbering)
heavy: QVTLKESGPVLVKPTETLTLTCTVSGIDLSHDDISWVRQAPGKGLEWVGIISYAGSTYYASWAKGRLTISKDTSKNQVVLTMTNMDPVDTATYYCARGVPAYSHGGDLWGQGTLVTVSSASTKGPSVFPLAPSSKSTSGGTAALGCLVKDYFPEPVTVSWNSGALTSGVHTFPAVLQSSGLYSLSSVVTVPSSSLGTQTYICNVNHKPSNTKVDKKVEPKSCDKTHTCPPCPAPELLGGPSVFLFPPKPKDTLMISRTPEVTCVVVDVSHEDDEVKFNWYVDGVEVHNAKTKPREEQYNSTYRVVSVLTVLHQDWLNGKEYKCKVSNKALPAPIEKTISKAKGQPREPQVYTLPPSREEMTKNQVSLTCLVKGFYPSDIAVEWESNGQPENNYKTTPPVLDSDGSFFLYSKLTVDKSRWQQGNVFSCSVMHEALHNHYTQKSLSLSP
light: B1 light
notes: as for B3
Kd [10]: 5.5 µM | KD fold (SG1 = 1) [11]: 3.9 fold | KD fold (SG1 = 1) [9]: 0.9 fold

B6: MS1032LO06-PK2 (antibody, human IgG1, kappa)
heavy: B1 heavy with T238N, D270E, R313Q, P398M, S402R
light: B1 light
notes: also called M103205H795-PK2; copies: 2 + 2
Kd [1]: 3.9 µM | KD fold (SG1 = 1) [2]: 0.09 fold

B7: M103205H795-MY048/M103202L889-SK1 (antibody, human IgG1, kappa, name in EU numbering)
heavy: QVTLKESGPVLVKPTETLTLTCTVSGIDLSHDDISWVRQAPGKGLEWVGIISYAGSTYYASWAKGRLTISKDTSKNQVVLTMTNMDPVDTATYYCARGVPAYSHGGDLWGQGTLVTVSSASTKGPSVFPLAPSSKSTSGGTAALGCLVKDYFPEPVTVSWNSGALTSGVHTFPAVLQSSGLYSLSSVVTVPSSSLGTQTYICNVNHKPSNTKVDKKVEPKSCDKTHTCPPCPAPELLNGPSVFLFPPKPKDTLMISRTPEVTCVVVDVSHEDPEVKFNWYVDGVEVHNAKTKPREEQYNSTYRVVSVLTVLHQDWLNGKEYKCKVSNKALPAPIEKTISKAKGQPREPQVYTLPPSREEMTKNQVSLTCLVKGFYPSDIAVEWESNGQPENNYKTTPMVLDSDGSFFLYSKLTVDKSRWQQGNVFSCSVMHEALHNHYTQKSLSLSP
light: B1 light
notes: as for B2
Kd [12]: 1.4 µM | Kd [13]: 7 µM | Kd [3]: 5.4 µM | KD fold (SG1 = 1) [4]: 2.5 fold | KD fold (SG1 = 1) [5]: 0.07 fold

B8: M103205H795-MY011/M103202L889-SK1 (antibody, human IgG1, kappa, name in EU numbering)
heavy: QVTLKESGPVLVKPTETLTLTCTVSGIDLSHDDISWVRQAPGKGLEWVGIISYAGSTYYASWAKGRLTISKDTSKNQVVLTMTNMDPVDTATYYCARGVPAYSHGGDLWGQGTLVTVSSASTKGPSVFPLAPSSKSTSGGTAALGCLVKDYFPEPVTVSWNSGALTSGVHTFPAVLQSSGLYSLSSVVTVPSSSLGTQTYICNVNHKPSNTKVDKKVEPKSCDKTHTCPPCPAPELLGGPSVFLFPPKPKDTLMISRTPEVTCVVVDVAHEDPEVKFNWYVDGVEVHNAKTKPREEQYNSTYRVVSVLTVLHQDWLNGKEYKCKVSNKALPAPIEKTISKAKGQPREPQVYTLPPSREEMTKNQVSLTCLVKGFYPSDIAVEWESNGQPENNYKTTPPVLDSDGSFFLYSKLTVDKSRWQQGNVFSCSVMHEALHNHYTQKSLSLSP
light: B1 light
notes: as for B3
Kd [10]: 2.3 µM | KD fold (SG1 = 1) [14]: 1.6 fold

B9: M103205H795-MY073/M103202L889-SK1 (antibody, human IgG1, kappa, name in EU numbering)
heavy: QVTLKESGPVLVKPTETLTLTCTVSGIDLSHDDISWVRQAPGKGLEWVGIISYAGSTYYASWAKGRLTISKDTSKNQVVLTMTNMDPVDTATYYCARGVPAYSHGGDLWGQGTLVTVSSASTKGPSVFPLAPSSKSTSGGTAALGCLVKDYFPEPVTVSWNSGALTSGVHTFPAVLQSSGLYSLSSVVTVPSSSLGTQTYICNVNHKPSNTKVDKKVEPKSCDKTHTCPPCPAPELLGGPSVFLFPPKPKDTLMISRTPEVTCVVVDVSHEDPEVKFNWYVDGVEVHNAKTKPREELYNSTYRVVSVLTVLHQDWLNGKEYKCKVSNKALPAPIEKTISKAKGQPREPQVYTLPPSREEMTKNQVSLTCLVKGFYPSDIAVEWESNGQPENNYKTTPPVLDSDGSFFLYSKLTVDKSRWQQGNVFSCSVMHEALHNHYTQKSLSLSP
light: B1 light
notes: as for B3
KD fold (SG1 = 1) [14]: 3.9 fold

B10: M103205H795-MY042/M103202L889-SK1 (antibody, human IgG1, kappa, name in EU numbering)
heavy: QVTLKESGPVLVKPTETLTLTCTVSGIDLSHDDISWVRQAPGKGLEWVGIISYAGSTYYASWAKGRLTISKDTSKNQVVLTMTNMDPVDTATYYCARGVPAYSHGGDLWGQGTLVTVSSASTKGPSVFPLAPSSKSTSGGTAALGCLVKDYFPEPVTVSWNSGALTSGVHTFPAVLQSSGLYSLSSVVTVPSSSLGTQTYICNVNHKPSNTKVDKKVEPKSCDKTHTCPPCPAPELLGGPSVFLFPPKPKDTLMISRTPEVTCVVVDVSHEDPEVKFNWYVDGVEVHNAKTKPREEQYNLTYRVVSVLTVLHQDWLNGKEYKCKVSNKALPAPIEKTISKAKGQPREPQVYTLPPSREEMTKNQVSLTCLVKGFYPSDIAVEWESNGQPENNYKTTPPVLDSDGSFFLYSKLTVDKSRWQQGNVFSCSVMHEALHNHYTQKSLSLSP
light: B1 light
notes: as for B3
Kd [10]: 0.51 µM

B11: M103205H795-MY013/M103202L889-SK1 (antibody, human IgG1, kappa, name in EU numbering)
heavy: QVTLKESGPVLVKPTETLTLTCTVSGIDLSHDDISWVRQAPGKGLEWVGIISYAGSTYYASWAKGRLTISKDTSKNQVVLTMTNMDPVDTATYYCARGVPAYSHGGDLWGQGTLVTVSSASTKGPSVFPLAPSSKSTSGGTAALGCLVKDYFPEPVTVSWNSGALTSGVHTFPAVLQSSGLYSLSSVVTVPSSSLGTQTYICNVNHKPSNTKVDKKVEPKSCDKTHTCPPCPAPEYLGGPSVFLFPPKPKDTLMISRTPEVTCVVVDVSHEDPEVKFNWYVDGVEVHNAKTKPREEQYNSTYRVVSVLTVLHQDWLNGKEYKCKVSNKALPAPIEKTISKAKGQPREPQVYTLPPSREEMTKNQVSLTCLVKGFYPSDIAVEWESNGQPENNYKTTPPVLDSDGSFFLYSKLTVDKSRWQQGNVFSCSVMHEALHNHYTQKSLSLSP
light: B1 light
notes: as for B3
KD fold (SG1 = 1) [8]: 0.5 fold

B12: M103205H795-MY196/M103202L889-SK1 (antibody, human IgG1, kappa, name in EU numbering)
heavy: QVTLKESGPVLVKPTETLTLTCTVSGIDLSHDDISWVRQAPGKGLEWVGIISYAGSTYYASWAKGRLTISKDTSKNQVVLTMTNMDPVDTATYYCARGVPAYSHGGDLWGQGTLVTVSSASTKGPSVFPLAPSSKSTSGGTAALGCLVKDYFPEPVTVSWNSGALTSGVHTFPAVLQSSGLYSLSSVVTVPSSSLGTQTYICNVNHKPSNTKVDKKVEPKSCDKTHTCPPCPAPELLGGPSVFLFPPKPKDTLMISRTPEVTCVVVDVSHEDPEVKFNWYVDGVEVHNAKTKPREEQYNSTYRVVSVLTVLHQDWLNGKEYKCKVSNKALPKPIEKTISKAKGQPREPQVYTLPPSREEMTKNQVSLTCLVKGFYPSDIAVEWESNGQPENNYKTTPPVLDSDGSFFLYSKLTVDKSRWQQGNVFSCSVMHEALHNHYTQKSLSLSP
light: B1 light
notes: as for B3
Kd [15]: 3.2 µM

B13: MS1032LO06-MY344 (antibody, human IgG1, kappa)
heavy: B1 heavy with T238N, Q297L
light: B1 light
notes: also called M103205H795-MY344; copies: 2 + 2
Kd [1]: 4.9 µM | KD fold (SG1 = 1) [2]: 0.07 fold

B14: M103205H795-MY071/M103202L889-SK1 (antibody, human IgG1, kappa, name in EU numbering)
heavy: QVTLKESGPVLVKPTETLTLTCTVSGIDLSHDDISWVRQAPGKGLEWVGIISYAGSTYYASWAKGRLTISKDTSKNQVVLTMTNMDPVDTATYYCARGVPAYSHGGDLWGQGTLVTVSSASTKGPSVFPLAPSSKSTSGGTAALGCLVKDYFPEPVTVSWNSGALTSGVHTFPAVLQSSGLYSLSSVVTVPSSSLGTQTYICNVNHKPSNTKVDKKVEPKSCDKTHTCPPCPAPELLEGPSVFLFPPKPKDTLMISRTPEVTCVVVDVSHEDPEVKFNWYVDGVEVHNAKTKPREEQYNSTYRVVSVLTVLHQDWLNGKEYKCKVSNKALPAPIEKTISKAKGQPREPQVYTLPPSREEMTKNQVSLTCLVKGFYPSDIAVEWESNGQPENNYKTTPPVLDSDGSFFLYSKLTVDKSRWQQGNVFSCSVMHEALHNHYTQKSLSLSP
light: B1 light
notes: as for B3
Kd [15]: 3.1 µM | KD fold (SG1 = 1) [16]: 1.5 fold | KD fold (SG1 = 1) [11]: 1.8 fold
